This assay concerns the target βCAT_(666-729), β-catenin residues 666-729 (human) (UniProt P35222). Description: ITC. (In general: Isothermal titration calorimetry measures the heat released or taken up as one component is titrated into another.)

βCAT_(666-729), β-catenin residues 666-729 (human), sequence (P35222 666-729): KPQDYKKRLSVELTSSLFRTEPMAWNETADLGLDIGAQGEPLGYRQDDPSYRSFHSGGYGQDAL

With “TAZ1 domain of CBP (residues 346-440) (from UniProt Q92793 346-440) (domain or fragment)”, the Kd worked out at 67 µM.

What is called Kd is the concentration at which binding is half-saturated.

The record behind these values is publication doi:10.1101/2022.08.30.505852.
